Consider two substances from publication PMC6520365, “Structural and functional characterization of the PDZ domain of the human phosphatase PTPN3 and its interaction with the human papillomavirus E6 oncoprotein” (Scientific Reports, 2019).

For assay [1], the target named is PDZ domain of the human protein tyrosine phosphatase non-receptor type 3 (PTPN3-PDZ) (human) (UniProt P26045). Put plainly: AUC; sedimentation velocity, PTPN3-PDZ alone at 25 μM, 20 °C, 42000 rpm; monomer and dimer peaks.
In assay [2] the target is p38γ PBM (Homo sapiens). As to conditions: cited from earlier work.

Sequence of PTPN4 PDZ (P29074 514-592): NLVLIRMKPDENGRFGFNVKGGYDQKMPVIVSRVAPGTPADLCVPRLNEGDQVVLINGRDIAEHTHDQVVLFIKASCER

The term stoichiometry N denotes a count of units in the complex or per binding partner. For the substance “PDZ domain of the human protein tyrosine phosphatase non-receptor type 3 (PTPN3-PDZ) (from UniProt P26045-1 504-913) (domain or fragment)”, in assay [1], the stoichiometry N is 2. Broadly, the Kd is the constant that tells how readily two partners part at equilibrium. PTPN4 PDZ (from UniProt P29074): in assay [2], the Kd is 1600 nM.
